The data set “cross-linking” concerns the molecule itself. In words: cross-linking.
The data set “native gel or EMSA” concerns the molecule itself. In words: native gel or EMSA. Background: In EMSA bound probe runs differently from free probe, usually more slowly.

Values joined by “and” are separate entries in the source; they are usually repeats but may differ in a detail not shown here. Equal entries are not always repeated.

B1: C-terminally triple HA-tagged Pun1p expressed via the MET25 promoter from plasmid YEpM-PUN1-HA (natural protein, S. cerevisiae, UniProt Q06991 1-263, looked up)
chain: MRNFFTLFFAAIFSLGALILAIVACAGSTKNYSPINKIYCAELDLSQMKVSTVLPSLSSATLSSLGLPSYINIGLWSYCTVDSSHNIQSCSSPHGIQNFNLSSLVYDNINNNEALELMDSVASVVLPEKLKSKMTYYNNLVKCMFITILIGIVLTFVNLVFNVLRWIIHIRPLTWFGAFFSFFAFAALLVSIGSCLGTYSYIKYILKHNYSDYGISMSIGRNYQGLMWGAVVGALLNFILWCSVRSRPTVIYANAPIEEKPLI
With B1, the “stoichiometry N” value was 2 and 4 and 6 in “cross-linking”; 10 and 12 and 8 in “native gel or EMSA”.

The stoichiometry N is a count of units in the complex or per binding partner.

The record behind these values is publication PMC3062784 (Biochimica et Biophysica Acta, 2011).
